Laboratory results as given in the nanobody polyreactivity screen of Harvey et al. (2022).

Experiment: yeast display, Sf9 membrane polyspecificity reagent, FACS + sequencing; frameworks hold sequencing errors
Method in brief: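 Genes from sorted yeast were amplified by colony PCR, read by MiSeq 2 × 250 sequencing and filtered on CDR length. These cells carried a synthetic nanobody library in Saccharomyces cerevisiae BJ5465 and were sorted by FACS into low and high (top ~1%) gates on anti-HA and streptavidin fluorescence. Polyreactivity is labelled according to the gate of origin.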

Row | Sequence | polyreactivity (PSR sort gate)
1 | QVQLVESGGGLVQAGGSLRLSCAASGSTFYVYVMGWYRQAPGKERELVAAISRSGGRTYYADSVKGRFTISRDNAKNTVYLQMNSLKPEDTSGYYCNARGSRRGGPGYEYWGQGTQVTVSS | high polyreactivity
2 | QVQLVESGGGLVQAGGSLRLSCAASGSTFYYFALGWYRQAPGKERELVAAISSGGTTNYADSVKGRFTISRDNAKNTVYLQINSLKPEDTAVYYCAARFRRVRFTHYDYWGQGTQVTVSS | high polyreactivity
3 | QVQLVESGGGLVQAGGSLRLSCAASGSTFYYNAMGWYRQAPGKERELVAGISGGGSTNYADSVKGRFTISRDNAKNTVYLQMNSLKPEDTAVYYCAARERYRGAIGYDYWGKGTQVTVSS | low polyreactivity
4 | QVQLVESGGGLVQAGGSLRLSCAASGSTFYYNAMRWYRQAPGKERELVAAITGSGDSTYYADSVKGRFTISRDNAKNTVYLQMNSLKPEDTAVYYCAADTYSTYWGQGTQVTVSS | low polyreactivity
5 | QVQLVESGGGLVQAGGSLRLSCAASGSTFYYNGMGWYRQAPGKERELVAVISISGGSTYYADSVKGRFTISRDNAKNTVYLQMNSLKPEDTAVYYCATSYVGRSAYRSYGARGGYWGQGTQVTVSS | low polyreactivity
6 | QVQLVESGGGLVQAGGSLRLSCAASGSTFYYYAMGWYRPAPGKEREFVASISSRGTSTYYADSVKGRFTISRDNAKNTVYIQMISLKPEDTAVDYGAARVWGPTRAYDYWGQGTQVTVSS | high polyreactivity
7 | QVQLVESGGGLVQAGGSLRLSCAASGSTFYYYAMGWYRPAPGKEREMVAAINSGGRTNYADSVKGRFTISRDNAKNSVYLQMNSLKPEDTAVYYCAKRTYPYGTYRSVWGYDYWGQGTQVTVSS | low polyreactivity
8 | QVQLVESGGGLVQAGGSLRLSCAASGSTFYYYAMGWYRQAPGKERELVAAISASGDSTYYADSVKGRFTISRDNAKNTVYLQMNSLKPEDTAVYYCAAQYYFYPHEFDYWGQGTQVTVSS | low polyreactivity
9 | QVQLVESGGGLVQAGGSLRLSCAASGSTFYYYAMGWYRQAPGKERELVAAISTSDGSTYYADSVKGRFTISRDNAKNTVYLQMNSLKPEDTAVYYCAAESYERFPSYYYWGQGTQVTVSS | low polyreactivity
10 | QVQLVESGGGLVQAGGSLRLSCAASGSTFYYYAMGWYRQAPGKERELVAAISVRAGITYYADSVKGRFTISRDNAKNTVYLQMNSLKPEDTAVYYCAKDHWTTSYDEGDYWGQGTQVTVSS | low polyreactivity
11 | QVQLVESGGGLVQAGGSLRLSCAASGSTFYYYAMGWYRQAPGKERELVAAISWRCSSTYYADSVKGRFTISRDNAKNTVYLQMNSLKPEDTAVYYCAAGYPGRVSGYLFGTRATYYYWGQGTQVTVSS | high polyreactivity
12 | QVQLVESGGGLVQAGGSLRLSCAASGSTFYYYAMGWYRQAPGKERELVAAITIGGSTNYADSVKGRFTISRDNAKNTVYLQMNSLKPVDTAVYYCAADYRITYARDFDYWGQGTQVTVSS | low polyreactivity
13 | QVQLVESGGGLVQAGGSLRLSCAASGSTFYYYAMGWYRQAPGKERELVAAITSGGSTDYADSVKGRFTISRDNAKNTVYLQMKSLKPEDTAVYYCAKDSQSYTREAYYYWGQGTQVTVSS | low polyreactivity
14 | QVQLVESGGGLVQAGGSLRLSCAASGSTFYYYAMGWYRQAPGKERELVAAITYSGGSTTYADSVKGRFTISRDNAKNTVYLQMNSLKPEDTAVYYCAAYVYRYHRVAYEYWGQGTQVTVSS | high polyreactivity
15 | QVQLVESGGGLVQAGGSLRLSCAASGSTFYYYAMGWYRQAPGKERELVATITSGASTNYADSVKGRFTISRDNAKNTVYLQMNSLKPEDTAVYYSNAGSLTSYLPWSSYDYWGQGTQVTVSS | low polyreactivity
16 | QVQLVESGGGLVQAGGSLRLSCAASGSTFYYYAMGWYRQAPGKERELVAVITRGGGTYYADSVKGRFTISRDNAKNTVYLQMNSLKPEDTAVYYCNARQRSSTRKGYNYWGQGTQVTVSS | high polyreactivity
17 | QVQLVESGGGLVQAGGSLRLSCAASGSTFYYYSMGWYRQAPGKERELVASISDDGSTNYADSVKGRFTISRDNAKNTVYLQMNSLKPEDTAVYYCAAVWWHQFGSAWYQMGYWGQGTQVTVSS | low polyreactivity
18 | QVQLVESGGGLVQAGGSLRLSCAASGSTFYYYTMGWYRQATGKERELVAAITYRGGSTYADSVKGRFTISRDNAKNTVYLQMNSLKPEDTAVYYCAAVRRHPTHYDYWGQGTQVTVSS | high polyreactivity
19 | QVQLVESGGGLVQAGGSLRLSCAASGSTGVYAMGWYRQAPGKERELVADITSGGNTDYADSVKGRFTISRDNAKNTVYLQMTSLKPEDTAVYYCAADDYYVLDYFWFIEYGYWGQGTQVTVSS | high polyreactivity
20 | QVQLVESGGGLVQAGGSLRLSCAASGSTIADNAMGWYRQAPGKERELVAAITRSGVRTYYADSVKGRFTISRDNAKYTVYLQMNSLKPDDSAVYYCAKRTYPSRIYDYWGQGTQVTVSS | low polyreactivity
21 | QVQLVESGGGLVQAGGSLRLSCAASGSTIDRYAMGWYIQAPGKEREFVAAISFSSASTYYADSVKGRFTISRDNAKNTVYLQMNSLKPEDTAVYYCNADFFDSGGSIEYDSWGQGTQVTVSS | low polyreactivity
22 | QVQLVESGGGLVQAGGSLRLSCAASGSTIDWYGMGWYRQAPGKERELVAAINFSDGSTYYADSVKGRFTISRDNAKNTVYLQMNSLKPEDTAVYYCAAYTPSYGGRDYWGQGTQVTVSS | low polyreactivity

Row | Sequence | polyreactivity (PSR sort gate)
23 | QVQLVESGGGLVQAGGSLRLSCAASGSTIDYYAMGWYRQAPGKERELVATISRGGSTNYADSVKGRFTISRDNAKNTVYLQMNSLKPEDTAVYYCAATYARYFYKYYYWGQGTQVTVSS | high polyreactivity
24 | QVQLVESGGGLVQAGGSLRLSCAASGSTIEPNSMGWYRQAPGKEREFVAAITTRGGSTFYADSVKGRFTISRDNAKNTVYLQMNSLKPEDTAVYYCAADYYFVDYDYWGQGTQVTVSS | low polyreactivity
25 | QVQLVESGGGLVQAGGSLRLSCAASGSTIFYNAMGWYSKAPGKERELVAAITDSGGSTYYADSVKGRFTISRDNAKNTVYLQMNSLKPEDTAVYYCAKRNFDNPIFDYWGQGTQVTVSS | low polyreactivity
26 | QVQLVESGGGLVQAGGSLRLSCAASGSTIGDNAMGWYSQAPGKERELVASISWSGASTYYADSVKGRFTISRDNAKNTVYLQMNSLKPEDTAVYYCAVYYSYYSHLYHLLFYYWGQGTQVTVSS | low polyreactivity
27 | QVQLVESGGGLVQAGGSLRLSCAASGSTIIAYAMGWYRQAPGKERELVAAITTGDSTNYADSVKGRFTISRDNAKNTVYLQMNSLKPEDTAVYYCNADATDFHFLSEIGSSQEGDYWGQGTQVTVSS | low polyreactivity
28 | QVQLVESGGGLVQAGGSLRLSCAASGSTIIYNTMGWYRQAPGKERELVARITWSGGSTSYADSVKGRFTISRDNAKNTVYLQMNSLKPEDTAVYYCNRRVQARRYRYDYWGQGTQVTVSS | high polyreactivity
29 | QVQLVESGGGLVQAGGSLRLSCAASGSTIKYYAMGWYRQAPGKDRELVAAINWSGDSTYYADSVKGRFTISRDNAKNTVYLQMHSLKPEETAVYYCAVRYQKRAYYGSNYWGQGTQVTVSS | high polyreactivity
30 | QVQLVESGGGLVQAGGSLRLSCAASGSTILSNAMGWYRQAPGKERELVARITSGGSTHYADSVKGRFTISRDNAKNTVYLQMNSLKPEDTAVYYCNADYWFVEYDYWGQGTQVTVSS | low polyreactivity
31 | QVQLVESGGGLVQAGGSLRLSCAASGSTIPRNALGWYRQATGKERELVPAISSGGSTYYADSVKWRFTISRDNAKNTVYLQMNRLKPEDTAVYYCAARLYWPIIVVDLYGYDYWGQGTQVTVSS | low polyreactivity
32 | QVQLVESGGGLVQAGGSLRLSCAASGSTIQSNGMVWYRQAPGKERELVAAITSTDASTSYADSVKGRFTISRDNAKNTVYLQMNSLKPEDTAVYYCAADFPVASGAELDYWGLGTQVTVSS | low polyreactivity
33 | QVQLVESGGGLVQAGGSLRLSCAASGSTIRFNAMGWYRQAPRKERELVAAISWRGGTTYADSVKGRFTISRDNAKNTVFLQMTSLKPEDTAVYYCAAGLYAQGKRYGYWGHGTQVTVSS | high polyreactivity
34 | QVQLVESGGGLVQAGGSLRLSCAASGSTIRLNAMGWYRQAPGKERELVAAISWTGGSTYYADSVKGRFTISRDNAKNTVYLQMNSLKPEDTAVYYCAADWWQGTSHYWGGAYNYWGQGTQVTVSS | low polyreactivity
35 | QVQLVESGGGLVQAGGSLRLSCAASGSTIRSYAMGWYRQAPGKERELVAVISSGDSTYYADSVKGRFTISRDNAKNTVYLQMNSLKPEDTAVYYCAADSYVLGRWYGYWGQGTQVTVSS | low polyreactivity
36 | QVQLVESGGGLVQAGGSLRLSCAASGSTISGYAMGWYRQAPGKERELVATISRGGSTNYADSVKGRFTISRDNAKNTVYLQMNSLKPEDTAVYNCAAQTYVWWVKYHSWGQGTQVTVSS | low polyreactivity
37 | QVQLVESGGGLVQAGGSLRLSCAASGSTISYYAMGWYRQAPGKERELVAAITRSGGSTYYADSVKGRFTISRDNAKNTFYLQMNSLKPEDTAVYYCAKGWRYFVGWGQRSRYYFWGQGTQVTVSS | high polyreactivity
38 | QVQLVESGGGLVQAGGSLRLSCAASGSTITDYDMGWYRQAPGKERELVAAITSGGSTNYADSVKGRFTISRDNAKNTVYLQMNSLKPEDTAVYYCAAADADRKYDYWGQGTQVTVSS | low polyreactivity
39 | QVQLVESGGGLVQAGGSLRLSCAASGSTITDYTMGWYRQAPGKERELVAVISQSGGSTYYADSVKGRFTISRDNAKNTVYLQMNSLKPEDTAVYYCAARTYWRGYRGQKYDYWGQGTQVTVSS | high polyreactivity
40 | QVQLVESGGGLVQAGGSLRLSCAASGSTIVSYDMGWYRPAPGKDRELVAAITYDGDSTYYADSVKGRFTISRDNAKNTVYLQMNSLKPEDTAVYYCAAEPGDDLKFRGGFEYWGQGTQVTVSS | low polyreactivity
41 | QVQLVESGGGLVQAGGSLRLSCAASGSTIYKYAMGWYRQAPGKERELVAAISGSGGRTYYADSVKGRFTISRDNAKNTVYLQMNSLKPEDTAVYYCAARPKGGPWEHDYWGQGTQVTVSS | high polyreactivity
42 | QVQLVESGGGLVQAGGSLRLSCAASGSTIYPYAMGWYRQAPGKERELVASISGGGSTYYADSVKGRFTISRDNAKNTVYLQMNSLKPEDTAVYYCNAEFDLYWYRYYYWGQGTQVTVSS | high polyreactivity
43 | QVQLVESGGGLVQAGGSLRLSCAASGSTIYSYAMGWYRQAPGKERELVAAISWSGARTYYADSVKGRFTISRDIAKNTVYLQMNSLKPEDTAVYYCAASGYYSSHMDYWGQGTQVTVSS | high polyreactivity
